US20260028587A1

Biological target: human TMEM119 (transmembrane protein 119) (human) (UniProt Q4V9L6)
Test: flow cytometry on primary human brain cell suspensions

Sequence of UniProt Q4V9L6 (Q4V9L6 26-283): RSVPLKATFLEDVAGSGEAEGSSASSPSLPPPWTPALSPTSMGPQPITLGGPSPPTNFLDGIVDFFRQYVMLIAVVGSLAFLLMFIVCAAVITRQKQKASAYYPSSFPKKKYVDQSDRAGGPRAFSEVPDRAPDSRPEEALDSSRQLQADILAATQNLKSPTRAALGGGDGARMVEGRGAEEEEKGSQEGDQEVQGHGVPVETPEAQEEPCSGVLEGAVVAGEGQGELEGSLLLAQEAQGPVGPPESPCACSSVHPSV

percent of CD45+/CD11B+ human brain cells stained: 70 to 98%
Substance: Mouse anti-hTMEM119 monoclonal clone A16075D (antibody)
